Results on six molecules are retold here after paper PMC3142331 (Molecular cell, 2011).

Square brackets hold non-standard residues; d marks the D form. Ends that are not written are not given here. fluorescein = fluorescein label (fluorescent) on the peptide N-terminus; pS = N[C@@H](COP(=O)(O)O)C(=O)O

Test [1] has as its target tetraheptad CTD-Ser5-PO4 peptide (phosphorylated at Ser5 (CTD-Ser5-PO4)). Nature of the test: cell-based or functional assay.
For test [2], the target named is T1, fluorescein labeled phosphorylated CTD peptide (Fluor-S2P3T4S5PP6S7Y1S2PP3T4S5).
T1 peptide: fluorescein-SPT[pS]PSY[pS]PTS
Nature of the test: fluorescence polarisation.

B1: Mce R330A (domain or fragment)
chain: not shown
On to B1, for which, in test [1], the “fold stimulation of guanylylation by CTD Ser5-PO4” value (from here on “fold stimulation … by CTD Ser5-PO4”) came out at 2.1 fold.

B2: Mce R330A/K331A (domain or fragment)
chain: not shown
On to B2, for which the “fold stimulation … by CTD Ser5-PO4” value in test [1] was found to be 1.9 fold.

B3: Mce C383Y (domain or fragment)
chain: not shown
Consider B3, for which the “fold decrease in affinity against wild-type Mce” value in test [2] is 1.9 fold.

B4: Mce R330A/K331A/R386A (domain or fragment)
chain: not shown
For the molecule B4, in test [1], the “fold stimulation … by CTD Ser5-PO4” value was 1.6 fold.

B5: Mce-C375R (domain or fragment)
chain: not shown
Turning to B5, in test [1], the “fold stimulation of guanylylation in the presence of CTD Ser5-PO4” value amounted to 5.9 fold.

B6: Mce-K294A (domain or fragment)
chain: not shown
For the molecule B6, the “fold reduction of affinity against wild-type Mce” value in test [2] was about 1.8 fold.
